Like-named read-outs stand apart in the source and are kept apart here.
Columns and labels:
[1] = target: Recombinant human transforming growth factor-β1 (TGF-β1) (human) (UniProt P01137); test: SPR; Biacore T-100, CM5 chip, amine coupling, HBS-EP running buffer; TGF-β immobilised as ligand, Spp24 proteins as analytes; five concentrations of each analyte; kinetic constants by the manufacturer's software
TGF-β1 (Homo sapiens) = TGF-β1 (Homo sapiens) (UniProt P01137); conditions: cited from earlier work
Chain of TGF-β1 (Homo sapiens) (P01137 279-390): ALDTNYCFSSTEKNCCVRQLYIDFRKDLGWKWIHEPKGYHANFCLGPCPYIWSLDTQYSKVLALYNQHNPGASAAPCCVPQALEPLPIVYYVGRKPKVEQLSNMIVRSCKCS

rhBMP-2 (Homo sapiens) [2] = target: rhBMP-2 (Homo sapiens) (UniProt P12643); conditions: cited from earlier work
Chain of rhBMP-2 (Homo sapiens) (P12643 283-396): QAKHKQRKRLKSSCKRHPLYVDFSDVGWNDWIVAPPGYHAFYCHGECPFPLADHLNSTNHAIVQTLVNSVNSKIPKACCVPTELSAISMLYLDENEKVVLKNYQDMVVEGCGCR

rhBMP-2 (Homo sapiens) [3] = target: rhBMP-2 (Homo sapiens) (UniProt P12643); conditions: cited from earlier work; remark: listed apart in the source
rhBMP-2 (Homo sapiens) [4] = target: rhBMP-2 (Homo sapiens) (UniProt P12643); test: SPR; conditions: cited from earlier work
[5] = target: rhOP-1 (BMP-7) (Homo sapiens) (UniProt P18075); test: SPR; conditions: cited from earlier work
Chain of rhOP-1 (BMP-7) (Homo sapiens) (P18075 293-431): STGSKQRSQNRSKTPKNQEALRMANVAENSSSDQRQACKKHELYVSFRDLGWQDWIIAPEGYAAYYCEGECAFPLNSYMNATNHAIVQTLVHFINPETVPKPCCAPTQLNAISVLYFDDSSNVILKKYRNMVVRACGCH

rhTGF-β (Homo sapiens) = rhTGF-β (Homo sapiens) (UniProt P01137); test: SPR; conditions: cited from earlier work
Chain of rhTGF-β (Homo sapiens) (P01137 279-390): as the sequence (P01137 279-390) above

Chain of Recombinant human transforming growth factor-β1 (TGF-β1) (human) (P01137 279-390): as above
Chain of Spp14.5, C-terminal truncation product of Spp24 (domain or fragment) (Q27967 24-203): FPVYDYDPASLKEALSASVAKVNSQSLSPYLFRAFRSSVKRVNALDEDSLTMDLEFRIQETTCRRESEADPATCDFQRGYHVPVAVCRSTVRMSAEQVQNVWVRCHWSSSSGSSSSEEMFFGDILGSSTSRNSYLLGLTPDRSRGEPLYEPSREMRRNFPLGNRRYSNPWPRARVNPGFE
Chain of Spp16.0, C-terminal truncation product of Spp24 (domain or fragment) (Q27967 24-203): as above
Chain of Spp18.1, C-terminal truncation product of Spp24 (domain or fragment) (Q27967 24-203): as above
Chain of fetuin TRH1 peptide (P12763 114-133): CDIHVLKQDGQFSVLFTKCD

| Substance | Kd [1] [µM] | koff [1] [s⁻¹] | kon [1] [M⁻¹ s⁻¹] | other results |
| --- | --- | --- | --- | --- |
| fetuin TRH1 peptide |  |  |  | Kd (TGF-β1 (Homo sapiens)): > 10 µM; Kd (rhBMP-2 (Homo sapiens) [2]): 2.4 µM |
| Spp24 TRH1 peptide (BBP) |  |  |  | Kd (rhBMP-2 (Homo sapiens) [3]): 30 µM |
| BMP Binding Peptide (BBP) TRH1 domain (from UniProt Q27967) |  |  |  | Kd (rhBMP-2 (Homo sapiens) [4]): 0.0533 µM; Kd [5]: 0.0116 µM; Kd (rhTGF-β (Homo sapiens)): 0.068 µM |

Further lines, with some results ahead:

| Kd [1] [µM] | koff [1] [s⁻¹] | kon [1] [M⁻¹ s⁻¹] | Substance | other results |
| --- | --- | --- | --- | --- |
| 1.41 | 0.00589 | 4180 | Spp14.5, C-terminal truncation product of Spp24 (domain or fragment) |  |
| 3.25 | 0.0122 | 5550 | Spp16.0, C-terminal truncation product of Spp24 (domain or fragment) |  |
| 1.39 | 0.0106 | 10000 | Spp18.1, C-terminal truncation product of Spp24 (domain or fragment) |  |
